The values below come from PMC2720631.

The assay deals with TRIP8b (mouse (endogenous in forebrain cortex)) (UniProt Q8C437). Put plainly: co-IP.
UniProt Q8C437, sequence (Q8C437 whole entry): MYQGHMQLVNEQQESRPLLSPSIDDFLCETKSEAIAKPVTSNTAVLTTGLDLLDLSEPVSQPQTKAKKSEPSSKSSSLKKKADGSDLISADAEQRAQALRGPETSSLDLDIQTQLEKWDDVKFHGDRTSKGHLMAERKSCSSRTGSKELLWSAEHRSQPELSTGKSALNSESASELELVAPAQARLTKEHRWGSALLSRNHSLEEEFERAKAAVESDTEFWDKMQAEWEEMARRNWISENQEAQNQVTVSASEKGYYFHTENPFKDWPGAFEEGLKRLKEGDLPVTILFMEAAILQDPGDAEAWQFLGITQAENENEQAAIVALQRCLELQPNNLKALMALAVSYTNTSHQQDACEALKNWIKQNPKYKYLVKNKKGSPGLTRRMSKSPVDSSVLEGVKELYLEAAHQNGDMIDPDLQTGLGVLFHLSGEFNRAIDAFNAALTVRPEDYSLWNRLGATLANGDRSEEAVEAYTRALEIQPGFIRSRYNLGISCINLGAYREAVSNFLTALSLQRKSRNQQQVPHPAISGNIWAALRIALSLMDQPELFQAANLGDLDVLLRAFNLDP

HCN1, sequence (O88704 whole entry): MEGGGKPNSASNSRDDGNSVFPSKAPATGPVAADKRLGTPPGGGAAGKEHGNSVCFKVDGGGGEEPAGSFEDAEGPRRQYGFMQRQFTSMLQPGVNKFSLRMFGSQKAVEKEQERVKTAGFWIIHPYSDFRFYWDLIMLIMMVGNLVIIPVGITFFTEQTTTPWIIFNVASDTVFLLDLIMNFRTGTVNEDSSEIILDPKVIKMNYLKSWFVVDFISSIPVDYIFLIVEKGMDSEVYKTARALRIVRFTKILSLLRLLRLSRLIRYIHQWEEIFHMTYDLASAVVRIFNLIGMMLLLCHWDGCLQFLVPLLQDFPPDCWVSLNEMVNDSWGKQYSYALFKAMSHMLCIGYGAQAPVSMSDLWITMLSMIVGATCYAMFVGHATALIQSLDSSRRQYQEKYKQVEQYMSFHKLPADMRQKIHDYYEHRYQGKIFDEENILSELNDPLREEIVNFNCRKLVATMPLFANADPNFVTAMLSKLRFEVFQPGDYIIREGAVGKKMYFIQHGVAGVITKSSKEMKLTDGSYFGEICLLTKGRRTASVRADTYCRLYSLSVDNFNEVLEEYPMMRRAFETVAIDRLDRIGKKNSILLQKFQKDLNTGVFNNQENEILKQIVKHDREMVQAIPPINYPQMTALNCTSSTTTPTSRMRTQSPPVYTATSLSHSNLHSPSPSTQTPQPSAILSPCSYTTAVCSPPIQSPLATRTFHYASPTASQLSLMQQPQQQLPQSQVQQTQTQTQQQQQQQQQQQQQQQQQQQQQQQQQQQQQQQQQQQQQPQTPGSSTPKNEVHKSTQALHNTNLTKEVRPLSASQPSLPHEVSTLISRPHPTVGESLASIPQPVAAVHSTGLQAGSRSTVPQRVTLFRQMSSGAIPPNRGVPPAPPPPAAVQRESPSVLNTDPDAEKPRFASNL

For the substance “HCN1 (from UniProt O88704 1-910) (natural protein)”, the percent of HCN1 co-immunoprecipitated was < 50%.
